Test results published in doi:10.1101/2021.08.17.456605.
Blank lines part the entries; values can stand above or below the substance they belong to.

How the values were obtained:
[1] = biological target: Odinarchaeota LCB_4 Vps23(TSG101) (Odinarchaeota archaeon LCB_4); assay: SEC-MALS
[2] = biological target: Heimdallarchaeota AB125 Vps22 (HeimAB125_14050) (Heimdallarchaeota AB125); assay: cross-linking
[3] = biological target: Heimdallarchaeota AB125 Vps22 (HeimAB125_14050) (Heimdallarchaeota AB125); assay: SEC-MALS

stoichiometry N (Vps28 per Vps23 dimer) [1]: 1
Substance: Odinarchaeota LCB_4 Vps28 (natural protein)

stoichiometry N [2]: 2
stoichiometry N [3]: 2
Substance: Heimdallarchaeota AB125 Vps22 (HeimAB125_14050) (natural protein)

stoichiometry N [1]: 2
Substance: Odinarchaeota LCB_4 Vps23(TSG101) (natural protein)
